Results reported in the supplement of paper PMC7877785.
± gives the uncertainty stated by the source.

Assay: self-splicing fitness, log relative to wild type (ln ratio); higher = more splicing; Tetrahymena group I intron in knt gene, E. coli kanamycin selection, DiMSum; sequences stand for … in CUCUCU…GGAGGGAAAAGUUAUCAGGCAUGCACCUGGUAGCUAGUCUUUAAACCAAUAGAUUGCAUCGGUUUAAAAGGCAAGACCGUCAAAUUGCGGGAAAGGGGUCAACAGCCGUUCAGUACCAAGUCUCAGGGGAAACUUUGAGAUGGCCUUGCAAAGGGUAUGGUAAUAAGCUGACGGACAUGGUCCUAACCACGCAGCCAAGUCCUAAGUCAACAGAUCUUCUGUUGAUAUGGAUGCAGUUCACAGACUAAAUGUCGGUCGGGGAAGAUGUAUUCUUCUCAUAAGAUAUAGUCGGACCUCUCCUUAAUGGGAGCUAGCGGAUGAAGUGAUGCAACACUGGAGCCGCUGGGAACUAAUUUGUAUGCGAAAGUAUAUUGAUUAGUUUUGGAGUACUCGUGGUCG
Summary of the method: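 A randomised library covering all eight P1ex-region intron nucleotides was built with the intron in the knt kanamycin-resistance gene on pET-22b(+) and held in E. coli BL21(DE3). Cells were grown overnight at 37°C or 30°C on LB agar, with or without 25 μg/mL kanamycin, plus 100 μg/mL carbenicillin, 50 μM IPTG and 0.2% rhamnose, and pooled colonies were amplicon-sequenced on an Illumina HiSeq 2500. DiMSum fitness is the error-weighted combination of wild-type-normalised replicate fold changes, kanamycin versus none.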

Sequence | self-splicing fitness (ln) (30 °C) | self-splicing fitness (ln) (37 °C)
UGUAAGCAAUAUUACGACGC | -2.61 ± 0.36 | -1.61 ± 0.3
UGUAAGCAAUAUUACGAGCA | -0.193 ± 0.14 | 0.404 ± 0.2
UGUAAGCAAUAUUACGAGCU | -0.434 ± 0.16 | 0.293 ± 0.16
UGUAAGCAAUAUUACGAGGU | -4.29 ± 0.36 | -2.63 ± 0.28
UGUAAGCAAUAUUACGAUGU | -3.26 ± 0.15 | -1.93 ± 0.21
UGUAAGCAAUAUUACGCCAC | -3.43 ± 0.33 | -2.65 ± 0.41
UGUAAGCAAUAUUACGCGCA | -0.603 ± 0.14 | -0.167 ± 0.17
UGUAAGCAAUAUUACGCGCC | -1.18 ± 0.1 | -0.53 ± 0.13
UGUAAGCAAUAUUACGCGUC | -3.31 ± 0.25 | -2.65 ± 0.32
UGUAAGCAAUAUUACGGCAG | -0.191 ± 0.091 | 0.0264 ± 0.11
UGUAAGCAAUAUUACGGCGC | -1.87 ± 0.18 | -1.43 ± 0.25
UGUAAGCAAUAUUACGGCUA | 0.0076 ± 0.11 | 0.536 ± 0.13
UGUAAGCAAUAUUACGGGCG | 0.00753 ± 0.092 | 0.237 ± 0.11
UGUAAGCAAUAUUACGGGCU | -1.73 ± 0.17 | -0.63 ± 0.16
UGUAAGCAAUAUUACGUAAG | -1.86 ± 0.15 | -1.84 ± 0.11
UGUAAGCAAUAUUACGUCCG | -0.161 ± 0.12 | 0.473 ± 0.12
UGUAAGCAAUAUUACGUGUC | -3.77 ± 0.2 | -2.01 ± 0.17
UGUAAGCAAUAUUACGUGUG | -1.04 ± 0.085 | -0.237 ± 0.095
UGUAAGCAAUAUUACGUGUU | -3.3 ± 0.15 | -0.96 ± 0.12
UGUAAGCAAUAUUACGUUUC | -3.11 ± 0.22 | -3.02 ± 0.43

Sequence | self-splicing fitness (ln) (30 °C) | self-splicing fitness (ln) (37 °C)
UGUAAGCAAUAUUACGUUUU | -4.1 ± 0.18 | -1.14 ± 0.096
UGUCAGCAAUAUUACGAAUG | 0.0484 ± 0.12 | 0.565 ± 0.12
UGUCAGCAAUAUUACGACCA | -0.0909 ± 0.084 | 0.138 ± 0.12
UGUCAGCAAUAUUACGACGA | -0.0655 ± 0.12 | -1.08 ± 0.12
UGUCAGCAAUAUUACGAGCA | -0.272 ± 0.12 | -0.347 ± 0.13
UGUCAGCAAUAUUACGAUGC | -2.28 ± 0.42 | 
UGUCAGCAAUAUUACGCACU | -1.07 ± 0.087 | -0.0217 ± 0.12
UGUCAGCAAUAUUACGCCGU | -1.42 ± 0.13 | -1.12 ± 0.15
UGUCAGCAAUAUUACGGAAC | -3.82 ± 0.2 | -2.23 ± 0.3
UGUCAGCAAUAUUACGGCAC | -2.42 ± 0.35 | 
UGUCAGCAAUAUUACGGGCA | -2.75 ± 0.21 | -1.78 ± 0.27
UGUCAGCAAUAUUACGGGCG | -1.71 ± 0.093 | -1.26 ± 0.12
UGUCAGCAAUAUUACGGGUU | -2.31 ± 0.1 | -1.07 ± 0.11
UGUCAGCAAUAUUACGGUCG | -0.443 ± 0.068 | 0.559 ± 0.11
UGUCAGCAAUAUUACGGUUU | -1.01 ± 0.061 | -0.547 ± 0.086
UGUCAGCAAUAUUACGUAUG | -0.239 ± 0.063 | 0.657 ± 0.086
UGUCAGCAAUAUUACGUAUU | -1.77 ± 0.071 | -0.932 ± 0.081
UGUCAGCAAUAUUACGUCAG | -0.398 ± 0.09 | -0.464 ± 0.098
UGUCAGCAAUAUUACGUCUC | -2.3 ± 0.15 | -1.86 ± 0.22
